Reference: the nanobody polyreactivity screen of Harvey et al. (2022)

Assay: yeast display, Sf9 membrane polyspecificity reagent, FACS + sequencing; frameworks hold sequencing errors
How it was run: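 Synthetic nanobody libraries on Saccharomyces cerevisiae BJ5465 were galactose-induced for 36–48 hours, stained 1 hour at 4 °C with 10% biotinylated, detergent-solubilized Sf9 membrane reagent and enriched on streptavidin microbeads. FACS then separated cells into low and high (top ~1%) gates by anti-HA (expression) and streptavidin (reagent binding) fluorescence. Genes were colony-PCR amplified, MiSeq 2 × 250 sequenced and CDR-length filtered. A clone's polyreactivity label is that of its gate of origin.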

| Sequence | polyreactivity (PSR sort gate) |
| --- | --- |
| QVQLVESGGGLVQAGGSLRLSCAASGSTSRHNTMGWYRQPPGKERELVAAISGGGTTYYADSVKGRFTISRDNAKNTVYLQMNSLKPEDTAVYYCAAAFWGDYASSYRSGLDYWGQGTQVTVSS | low polyreactivity |
| QVQLVESGGGLVQAGGSLRLSCAASGFIFKYYTMGWYRQAPGKERELVAAISKNAGSTYYADSVKGRFTISRDNAKNTVYLQMNSLKPEDTAVYYCARTYSTWYYYWGQGTQVTVSS | high polyreactivity |
| QVQLVESGGGLVQAGGSLRLSCAASGRIFDLNAMGWYRQAPGKERELVADINSGGSTYYADSVKGRFTISRDNAKNTVYLQMNSLKPEDTAVYYCAVRRNQHVVQMYYWGQGTQVTVSS | low polyreactivity |
| QVQLVESGGGLVQAGGSLRLSCAASGRIFVNYAMGWYRQAPGKERELVAVISRSGGGTNYADSVKGRFTISRDNAKNTVYLQMNSLKPEDTAVYYCNRVYALTYYAKYGYDYWGQGTQVTVSS | high polyreactivity |
| QVQLVESGGGLVQAGGSLRLSCAASGSTFHRYTMGWYRQAPGKERELVAAISSGGRTYYADSVKGRFTISRDNAKNTVYLQMNSLKPEDTAVYYCNSRYPRQYWGGYDYWGQGTQVTVSS | high polyreactivity |
| QVQLVESGGGLGQAGGSLRLSCAASGSIFPYYAMGWYRPAPGTERELVASINQSDGTPYYADSVKGRFTISRDNAKNTVYLQMNSLKPEDTAVYYCAADTTLQAFIRYRPIGSYDSWGQGTQVTVSS | low polyreactivity |
| QVQLVESGGGLVQAGGSLRLSCAASGSTFYDYVMGWYRQAPGKERELVAVISSSGSTNYADSVKGRITISRDNAKNTVYLQMNSLKTEDTAVYYCAAEYTFDWLEFDYWGQGTQVTVSS | low polyreactivity |
| QVQLVESGGGLVQAGGSLRLSCAASGSTFYLYAMGWYRQAPGKERELVADISWDGDSTYYADSVKGRFTISRDNAKNTVYLQMNSLKPEDTAVYYCAADYFYYYEQYLWYTYDYWGQGTQVTVSS | high polyreactivity |
| QVQLVESGGGLVQAGGTLRLSCAASGSIFIPYAMGWYRQEPGKERELVAAISGSGTSTNYADSVKGRFTISRDNAKITVYFQMISLKPEDTAVYYCAKGYSNFYRSDYWGQGTQVTVSS | high polyreactivity |
| QVQLVESGGGLVQAGGSLRLSCAAAGFIFQYNGMGWYRQAPGKERELVAAITSSVNTYYADSVKGRFTISRDNAKNTVYLQMNSLKPEDTAVYYCNADDPDKSWGQGTQVTVSS | low polyreactivity |
| QVQLVESGGGLVQAGGSLRLSCAASGFIFGGYAMGWYRQAPGKERELVAAITWSGGNTYYADSVKGRFTISRDNAKNTVYLQMNSLKPEDTAVYYCAADYWTKYGYWGQGTQVTVSS | low polyreactivity |
| QVQLVESGGGLVQAGGSLRLSCAASGITFLPYAMGWYRQAPGKERELVAAITRGGGSTYADSVKGRFTISRDNAKNSVYFQMISLKPEDTAVYYCAKLYGRGSWYEDYDYWGQGTQVTVSS | low polyreactivity |
| QVQLVESGGGLVQAGGSLRLSCAASGGTFWDYAMGWYRQAPGKERELVAAITYGTASTDYADSVKGRFTISRDNAKNTVYLQMNSLKPEDTAVYYCAARWNQYPYSYSTYDYWGQGTQVTVSS | low polyreactivity |
| PVQRVESGGGLVQAGGSLRLSCAASGRTFDSYAMGWYRQAPGKERELVAAISSRGTRTYYADSVKGRFTSSRDNAKNPVYLQINSLQPEDTAGYYCNAGGAYEYDYWGQGSQVTVSS | high polyreactivity |
| QVQLVESGGGLVQAGGSLRLSCAASGRILTFYGMGWYRQAPGKERELVAAISNGGSTYYADSVKGRFTSSRDNAKNTVYLQMNSLKPEDTAVYYCAKRILTAPRRNSGYDYWGPGTQVTVSS | low polyreactivity |
| QVQLVESGGGLVQAGGSLRLSCAASGFTFGYYAMGWYRQAPGKERELVASISWRGGSTYYADSVKGRFTISRDNAKNTVYLQMNSLKPEDTAVYYCATKYTGPYYRTMNYWGQGTQVTVSS | high polyreactivity |
| QVQLVESAGGLVQAGGSLRLSCAASGFIFPTYAMGWYRQAPGKERELVAAITTGGGSTYYADSVKGRFTISRDNAKNTVYLQMNSLKPEDTAVYYCAAEYVAQAGYGEDYWGQGTQVTVSS | low polyreactivity |
| QVQLVESGGVLVQAGGSLRLSCAASGRIFTRNAMGWYRQAPGKERELVASITRGGSTYYADSVKGRFTISRDNAKITVYLQMNCLKAEDTALYYCAAVFYDRGQRYNYWGQGTQVTVSS | high polyreactivity |
| QVQLVESGGGLVQAGGSLRLSCAASGSIFDYNAMGWYRQAPGKEREFVAAISSSAGSTYYADSVKGRFTISRDNAKNTVYLQMNSLKPEDTAVYYCAARYQSPFRTYRFGMDYWGQGTQVTVSS | low polyreactivity |
| QVQLVESGGGLVQAGGSLRLSCAASGSIFSRYAMGWYRQAPGKERELVAAITSSGGRTYYADSVKGRFTISRDNAKNTVYLQMNSLKPEDTAVYYCAADVRTPSEGYDYWGQGTQGTVSS | high polyreactivity |
| QVQLVESGGGLVQAGVSLRLSCAASASTFSIYAMGWYRHAPGKERELVAAIDSGGRTKYADSVKGRFTISRDNAKNPVYLQMNSLKPEDTAVYYWAAVFRGWWLYDYWGLGTQVTVSS | low polyreactivity |
